Measured values as given in doi:10.1101/2025.07.23.666269 (bioRxiv, 2025).

Experiments:
[1] = molecular target: recombinant ɸ6 protein P2 (cystovirus ɸ6) (UniProt P11124); experiment: MST
[2] = molecular target: minor protein P7 of cystovirus ɸ6 (in virion-derived particles) (cystovirus ɸ6); experiment: cryo-EM structure
[3] = molecular target: RNA-dependent RNA polymerase P2 of cystovirus ɸ6 (in virion-derived particles) (cystovirus ɸ6) (UniProt P11124); experiment: cryo-EM structure
[4] = molecular target: recombinant ɸ6 protein P7, full length (cystovirus ɸ6); experiment: asymmetric flow field flow fractionation
[5] = molecular target: recombinant ɸ6 protein P2 (cystovirus ɸ6) (UniProt P11124); experiment: asymmetric flow field flow fractionation
cryo-EM structure = molecular target: the molecule itself; experiment: cryo-EM structure
[6] = molecular target: T1, recombinant ɸ6 protein P1 (cystovirus ɸ6, UniProt P11126 1-769); experiment: co-sedimentation
T1 sequence (looked up): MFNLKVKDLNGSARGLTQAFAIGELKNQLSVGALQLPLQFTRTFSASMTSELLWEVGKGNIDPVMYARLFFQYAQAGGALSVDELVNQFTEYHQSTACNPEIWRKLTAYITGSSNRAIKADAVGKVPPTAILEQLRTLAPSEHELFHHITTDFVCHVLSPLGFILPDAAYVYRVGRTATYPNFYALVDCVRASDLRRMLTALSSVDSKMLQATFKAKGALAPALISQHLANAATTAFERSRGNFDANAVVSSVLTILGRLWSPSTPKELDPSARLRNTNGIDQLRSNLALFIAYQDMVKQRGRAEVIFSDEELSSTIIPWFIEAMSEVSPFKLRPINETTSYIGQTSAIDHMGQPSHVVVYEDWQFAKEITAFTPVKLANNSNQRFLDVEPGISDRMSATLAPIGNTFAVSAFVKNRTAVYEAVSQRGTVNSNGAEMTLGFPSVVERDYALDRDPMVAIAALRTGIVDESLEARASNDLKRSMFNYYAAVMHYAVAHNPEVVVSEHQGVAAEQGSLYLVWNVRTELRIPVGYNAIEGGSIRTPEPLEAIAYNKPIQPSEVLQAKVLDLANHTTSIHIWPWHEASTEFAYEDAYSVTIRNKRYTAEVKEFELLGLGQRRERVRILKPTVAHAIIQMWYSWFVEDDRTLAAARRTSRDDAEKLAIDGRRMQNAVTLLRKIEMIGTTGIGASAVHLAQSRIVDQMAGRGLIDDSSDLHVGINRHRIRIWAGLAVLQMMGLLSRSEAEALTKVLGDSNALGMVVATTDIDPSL

**Q.** “C-terminally truncated P7 comprising residues 2–115 (domain or fragment)” was tested. Which Kd [1] did it give?
**A.** The Kd was 15.1 µM.

**Q.** With “minor protein P7 of cystovirus ɸ6 (in virion-derived particles) (natural protein)” as the molecule, how does the stoichiometry N [2] read?
**A.** Its stoichiometry N is 4.

**Q.** And the stoichiometry N (P7 dimers per P2) [3]?
**A.** The stoichiometry N (P7 dimers per P2) was 4.

**Q.** What does the source list for “recombinant ɸ6 protein P7, full length (natural protein)”?
**A.** stoichiometry N [4]: 2; stoichiometry N (P7 dimer per P2 monomer) [5]: 1; Kd [1]: 1.3 µM

B1: major capsid protein P1 of cystovirus ɸ6 (in virion-derived particles) (natural protein)
chain: T1 sequence (looked up)
**Q.** With B1 as the molecule, how does the “stoichiometry N” value (cryo-EM structure) read?
**A.** The value was 2.

B2: recombinant ɸ6 protein P2 (enzyme, cystovirus ɸ6)
chain: PRRAPAFPLSDIKAQMLFANNIKAQQASKRSFKEGAIETYEGLLSVDPRFLSFKNELSRYLTDHFPANVDEYGRVYGNGVRTNFFGMRHMNGFPMIPATWPLASNLKKRADADLADGPVSERDNLLFRAAVRLMFSDLEPVPLKIRKGSSTCIPYFSNDMGTKIEIAERALEKAEEAGNLMLQGKFDDAYQLHQMGGAYYVVYRAQSTDAITLDPKTGKFVSKDRMVADFEYAVTGGEQGSLFAASKDASRLKEQYGIDVPDGFFCERRRTAMGGPFALNAPIMAVAQPVRNKIYSKYAYTFHHTTRLNKEEKVKEWSLCVATDVSDHDTFWPGWLRDLICDELLNMGYAPWWVKLFETSLKLPVYVGAPAPEQGHTLLGDPSNPDLEVGLSSGQGATDLMGTLLMSITYLVMQLDHTAPHLNSRIKDMPSACRFLDSYWQGHEEIRQISKSDDAILGWTKGRALVGGHRLFEMLKEGKVNPSPYMKISYEHGGAFLGDILLYDSRREPGSAIFVGNINSMLNNQFSPEYGVQSGVRDRSKRKRPFPGLAWASMKDTYGACPIYSDVLEAIERCWWNAFGESYRAYREDMLKRDTLELSRYVASMARQAGLAELTPIDLEVLADPNKLQYKWTEADVSANIHEVLMHGVSVEKTERFLRSVMPR
modifications: RED fluorescent dye NT-647-NHS (Monolith Protein Labeling Kit RED-NHS), in the MST only
**Q.** Does B2 bind [6]?
**A.** Result: binds

B3: outer layer protein P8 of cystovirus ɸ6 (in virion-derived particles) (natural protein)
chain: MLLPVVARAAVPAIESAIAATPGLVSRIAAAIGSKVSPSAILAAVKSNPVVAGLTLAQIGSTGYDAYQQLLENHPEVAEMLKDLSFKADEIQPDFIGNLGQYREELELVEDAARFVGGMSNLIRLRQALELDIKYYGLKMQLNDMGYRS
**Q.** For B3, which “stoichiometry N” value (cryo-EM structure) is on record?
**A.** The value was 3.

B4: packaging NTPase P4 of cystovirus ɸ6 (in virion-derived particles) (enzyme, UniProt P11125 2-332, looked up)
chain: PIVVTQAHIDRVGIAADLLDASPVSLQVLGRPTAINTVVIKTYIAAVMELASKQGGSLAGVDIRPSVLLKDTAIFTKPKAKSADVESDVDVLDTGIYSVPGLARKPVTHRWPSEGIYSGVTALMGATGSGKSITLNEKLRPDVLIRWGEVAEAYDELDTAVHISTLDEMLIVCIGLGALGFNVAVDSVRPLLFRLKGAASAGGIVAVFYSLLTDISNLFTQYDCSVVMVVNPMVDAEKIEYVFGQVMASTVGAILCADGNVSRTMFRTNKGRIFNGAAPLAADTHMPSMDRPTSMKALDHTSIASVAPLERGSVDTDDRNSAPRRGANFSL
**Q.** With B4 as the molecule, how does the “stoichiometry N” value (cryo-EM structure) read?
**A.** The value was 6.
